Experimental data reported in article PMC10474089, “Activation of oxidoreductases by the formation of enzyme assembly” (Scientific Reports, 2023).

Key:
[1] = biological target: D-lactate dehydrogenase (DLD) from Gluconobacter oxydans (Gluconobacter oxydans); test: SEC; Superdex 200 10/300 GL, 25 °C, 0.75 ml/min, 150 mM NaCl, 0.1 mM DTT, 1 mM EDTA, 25 mM Tris-HCl pH 7.5; assembly state against gel filtration standards
[2] = biological target: L-lactate oxidase (LOX) derived from Enterococcus faecium (Enterococcus faecium); test: as above
[3] = biological target: Poly-L-lysine (PLL) hydrobromide (molecular weight: 4000–15,000 Da)
[4] = biological target: the molecule itself; test: SEC; Superdex 200 10/300 GL, 25 °C, 0.75 ml/min, 150 mM NaCl, 0.1 mM DTT, 1 mM EDTA, 25 mM Tris-HCl pH 7.5; assembly state against gel filtration standards

In the case of “D-lactate dehydrogenase (DLD) from Gluconobacter oxydans (enzyme)”, the stoichiometry N [1] is reported as 4.

“L-lactate oxidase (LOX) derived from Enterococcus faecium (enzyme)” gave a stoichiometry N [2] of 4 and an enzyme activity (DCIP assay, 25 nM LOX) with 1 mM PLL against without PLL, at pH 7 and pH 8 [3] of 7.5 fold.

B1: Glucose dehydrogenase (GDH) from Acinetobacter calcoaceticus (enzyme, UniProt P13650 25-478, looked up)
chain: DVPLTPSQFAKAKSENFDKKVILSNLNKPHALLWGPDNQIWLTERATGKILRVNPESGSVKTVFQVPEIVNDADGQNGLLGFAFHPDFKNNPYIYISGTFKNPKSTDKELPNQTIIRRYTYNKSTDTLEKPVDLLAGLPSSKDHQSGRLVIGPDQKIYYTIGDQGRNQLAYLFLPNQAQHTPTQQELNGKDYHTYMGKVLRLNLDGSIPKDNPSFNGVVSHIYTLGHRNPQGLAFTPNGKLLQSEQGPNSDDEINLIVKGGNYGWPNVAGYKDDSGYAYANYSAAANKSIKDLAQNGVKVAAGVPVTKESEWTGKNFVPPLKTLYTVQDTYNYNDPTCGEMTYICWPTVAPSSAYVYKGGKKAITGWENTLLVPSLKRGVIFRIKLDPTYSTTYDDAVPMFKSNNRYRDVIASPDGNVLYVLTDTAGNVQKDDGSVTNTLENPGSLIKFTYKAK
notes: PQQ-dependent glucose dehydrogenase, Acinetobacter calcoaceticus; expression vector pET22b-acGDH, a gift from Aisin Cosmos R&D; printed mass 53.7 kDa, calculated pI 8.93; also called acGDH
With B1 the “stoichiometry N” value [4] was 4.

B2: Acetaldehyde dehydrogenase (ALDH) from Sphingomonas wittichii (enzyme)
chain: AQAPITGGRPFADKPFKVEEVARFDSPWAMTFLPGGHMLVTEKAGRLLLLSPDGARRTAVEGVPAVDSSGQGALGEVVAHPDFATNGLVYFSYSAPGSPNGIVLARGKLVGDLGGARLEGVTTLYRAHPLKSGGHYAGRIAFSPDGHLFFSMGERQKFTPAQEPDGVLGKVVRLTMDGQPAPGNPLAAKGFDPAVWSYGHRNPLGLAFDLEGRLWDAEMGPKGGDEVNLILPGRNYGWPIVSNGDHYDGKPIPDHVTRPEFEAPKVSWNPSISPSSLLVYSGKLFPQWRGKALVGALSGEMLILVDLGEEGAKEEARYAMGQRIRAVDQGPDGAVYVLEDKAGGRLLRLMPAG
In the case of B2, the “stoichiometry N” value [4] is reported as 2.
